The values that follow come from patent publication US20090111753A1, “Nogo-A Polypeptide Fragments, Variant Nogo Receptor-1 Polypeptides, and Uses Thereof” (Yale University, priority 2004, published 2009).

One test relates to COS-7 cells. Nature of the test: Fibroblast spreading assay on dried GST fusion protein. It is filed as cell-based. Conditions: GST fusion protein presented as dried substrate. As to the method:
FIG. 2A. Effects of Amino-Nogo fragments on fibroblast spreading and neurite outgrowth. Different effects of Amino-Nogo fragments on fibroblast spreading. COS-7 cells were allowed to attach and spread on slides with spots coated with 50 ng of dried GST fusion protein as indicated and stained for F-actin. GST-A: fusion protein of GST and A fragment (FIG. 1) of Amino-Nogo. GST-A, GST-B, GST-Δ20, GST-B4 and GST-B4C: fusion protein of GST and A, B, Δ20, B4 or B4C fragment (FIG. 1) of Amino-Nogo, respectively.
FIG. 2B. COS-7 cell area for experiments as in (A) was measured and plotted.
FIG. 2C. COS-7 cells were allowed to attach and spread on 96 well dishes coated with dried GST fusion proteins as indicated. Number of attached cells were counted and plotted as a function of the amount of various proteins dried per well in a 96 well dish.
It has been recognized that the Amino-Nogo-A protein inhibits non-neuronal cell spreading and axonal outgrowth when the protein is substrate bound (Chen, M. S., et al., Nature 403:434-439 (2000); Fournier, A. E., et al., Nature 409:341-346 (2001)). […] The later domain has been termed Δ20. To determine whether the NgR-interacting aa of Amino-Nogo-A described in Example 1 regulate cell spreading and axonal outgrowth, various fragments were expressed as GST fusion proteins and purified from E. coli. To generate GST fusion proteins, amino Nogo fragments were cloned in pGEX2T (Amersham Pharmacia). Native and soluble GST fusion proteins were expressed and purified as described (GrandPre, T., et al., Nature 403:439-444 (2000)). COS-7 binding assays were done as described (Fournier, A. E., et al., Nature 409:341-346 (2001)). Bound AP to COS-7 cells was measured using NIH image software. Fibroblast spreading and cDRG outgrowth assay were done as described (Fournier, A. E., et al., Nature 409:341-346 (2001)) with some modifications. Briefly, 50 μl of purified GST fusion protein or peptides diluted in PBS was pipetted into polylysine precoated 96 well plates (Becton Dickson Biocoat plates) and dried overnight at room temperature. […]

Another test has as its system E13 chick DRG neurons. The test can be described thus: cDRG neurite outgrowth assay. It counts as cell-based. Conditions: substrate coated with GST fusion protein. As to the method: FIG. 2D. Differential effects of Amino-Nogo fragments on neurite outgrowth. Dissociated neurons from E13 chick DRGs were plated on 96 well dishes coated with lpmol protein per well and stained for neurofilament localization.
FIG. 2E. Neurite length per neuron were measured and plotted as percentage of PBS control with increasing concentration of dried protein for experiment described in […].
FIG. 6C. B24/32 peptide inhibits neurite outgrowth. Dissociated neurons from E13 chick DRG were plated onto 96 well dishes coated with 500 pmol of dried peptides as indicated and stained for neurofilament localization.
FIG. 6D. Neurite length per neuron was measured and plotted as percentage of PBS control for experiments as in (C).
(§1) It has been recognized that the Amino-Nogo-A protein inhibits non-neuronal cell spreading and axonal outgrowth when the protein is substrate bound (Chen, M. S., et al., Nature 403:434-439 (2000); Fournier, A. E., et al., Nature 409:341-346 (2001)). […] The later domain has been termed Δ20. To determine whether the NgR-interacting aa of Amino-Nogo-A described in Example 1 regulate cell spreading and axonal outgrowth, various fragments were expressed as GST fusion proteins and purified from E. coli. To generate GST fusion proteins, amino Nogo fragments were cloned in pGEX2T (Amersham Pharmacia). Native and soluble GST fusion proteins were expressed and purified as described (GrandPre, T., et al., Nature 403:439-444 (2000)). COS-7 binding assays were done as described (Fournier, A. E., et al., Nature 409:341-346 (2001)). Bound AP to COS-7 cells was measured using NIH image software. Fibroblast spreading and cDRG outgrowth assay were done as described (Fournier, A. E., et al., Nature 409:341-346 (2001)) with some modifications. Briefly, 50 μl of purified GST fusion protein or peptides diluted in PBS was pipetted into polylysine precoated 96 well plates (Becton Dickson Biocoat plates) and dried overnight at room temperature. For fibroblast spreading assay, subconfluent COS-7 cells were then plated for 1 hour in serum containing medium before fixation and staining with rho damine-phalloidin.
The same GST-Amino-Nogo proteins were tested for their ability to reduce neurite outgrowth from chick E13 DRG neurons. For cDRG outgrowth assay, dissociated E13 cDRG neurons were plated for 6 hours before fixation. […] Cell area, number of attached cells and neurite length were measured using the Imageexpress machine and software (Axon Instrument).
We reasoned that fusing the 24 aa segment of Amino-Nogo-A to NEP32 antagonist peptide might create a high affinity antagonist with a potency similar to the binding of AP-B4C-66 to NgR. […] Cell area, number of attached cells and neurite length were measured using the linageexpress machine and software (Axon Instrument).

The target of another test is T1, NgR (Homo sapiens, UniProt Q9BZR6).
T1 construct: expressed in transfected cells; host or cells: COS-7
T1 sequence (Q9BZR6 27-447): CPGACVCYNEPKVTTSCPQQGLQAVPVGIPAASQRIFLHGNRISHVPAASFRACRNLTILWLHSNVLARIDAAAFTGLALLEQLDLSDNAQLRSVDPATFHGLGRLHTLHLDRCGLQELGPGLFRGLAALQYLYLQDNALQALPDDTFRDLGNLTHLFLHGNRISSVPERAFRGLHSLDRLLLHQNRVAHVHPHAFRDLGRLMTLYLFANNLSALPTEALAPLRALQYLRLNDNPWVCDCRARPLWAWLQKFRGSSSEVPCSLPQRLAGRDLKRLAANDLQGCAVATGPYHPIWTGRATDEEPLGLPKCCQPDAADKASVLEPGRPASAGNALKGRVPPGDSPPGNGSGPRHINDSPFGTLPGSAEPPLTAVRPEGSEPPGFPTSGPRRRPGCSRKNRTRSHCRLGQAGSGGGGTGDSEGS
Nature of the test: AP fusion protein binding to NgR expressing COS-7 cells. Conditions: AP fused Amino-Nogo fragments in conditioned media on NgR expressing COS-7 cells; 'No binding at' cells continue on the next line: AmNg A 150 nM; a.a. 1000-1018, a.a. 1005-1018, Amino of NgC 25 nM; a.a. 950-1004 50 nM; Amino of NgB 100 nM.
Description: Several alkaline phosphatase (AP) fusion proteins containing various Nogo-A segments derived from regions between the amino terminus and the first hydrophobic segment were examined to identify the mechanism of Amino-Nogo-A action. To generate additional AP fusion proteins, human amino Nogo fragments were amplified and ligated to the pcAP6 vector digested with restriction enzymes EcoRI and XhoI as described (Fournier, A. E., et al., Nature 409:341-346 (2001)). Plasmids were then transfected into HEK293T cells and conditioned media were collected after 7 days. None of these fragments bind with high affinity to non-transfected COS-7 cells. […] This binding is saturable with a Kd indistinguishable from that for AP-Nogo-66 association with NgR (Table I). To better define the region responsible for Amino-Nogo interaction with NgR, a range of truncation mutants of Amino-Nogo were examined as AP fusion proteins. […] In fact, the NgR-interacting segment of Amino-Nogo is fully accounted for in the extreme carboxyl 24 amino acids (aa 995-1018, Amino-Nogo-A-24) (Table I and FIG. 1D). […] We named this domain (aa 995-1013) as Amino-Nogo-A-19.
Binding Kds for AP fused Amino-Nogo fragments were measured by applying conditioned media containing AP fusion protein to NgR expressing COS-7 cells. Bound AP was stained and measured.
as §1

The test system of another test is NgR mutants. Nature of the test: AP fusion protein binding to COS-7 cells expressing NgR deletion mutants. Conditions: COS-7 cells expressing NgR mutants; FIG. 3A. From the text:
FIG. 3A. Binding of Amino-Nogo to NgR requires LRR repeats. Binding of AP or AP fused Nogo fragments to COS-7 cells expressing NgR mutants as indicated. AP-B and AP-B4: AP fusion protein of B or B4 fragment of Amino-Nogo. Surface expression of NgR mutants was detected using anti-Myc antibodies.
Similarly, the cysteine rich LRR-NT and LRR-CT capping domains are essential for Amino-Nogo-B4C binding. […] NgR is part of gene family that includes NgR2 and NgR3. […] By these measures, the NgR requirements for Nogo-66 and Amino-Nogo-B4C binding are indistinguishable.

B1: B4C: fusion protein of GST and B4C fragment (carboxyl terminal 75 aa) of Amino-Nogo (protein)
chain: LLPPDVSALATQAEIESIVKPKVLVKEAEKKLPSDTEKEDRSPSAIFSAELSKTSVVDLLYWRDIKKTG
modifications: left off: large carriers
notes: fusion protein of GST and B4C fragment (carboxyl terminal 75 aa) of Amino-Nogo
Consider B1, for which the “COS-7 cell attachment and spreading” value with COS-7 cells is “do not alter COS-7 morphology”. In addition, in the test on E13 chick DRG neurons, the “neurite outgrowth from chick E13 DRG neurons” value is recorded as “not inhibitory for axonal growth”.

B2: a.a. 950-1018 (AmNg B4C): AP fusion protein of Amino-Nogo fragment B4C, aa 950-1018 (protein)
chain: LLPPDVSALATQAEIESIVKPKVLVKEAEKKLPSDTEKEDRSPSAIFSAELSKTSVVDLLYWRDIKKTG
modifications: left off: large carriers
In the test with NgR, B2 gave a Kd of 3.51 ± 3.36 nM. In the test with NgR mutants, the “binding to NgR with deletion of the CT domain” value is recorded as “did not alter”; the “binding to NgR with deletions of any two LRRs” value was “eliminated binding”; the “requirement of LRR-NT and LRR-CT capping domains of NgR for binding” value is listed as “essential”.
